Substrate: Nc1ncnc2c1ncn2[C@@H]1O[C@H](CO)[C@@H](O)[C@H]1O
Experiment: Absorbance-based assay of ADA in solution
Format: biochemical, bovine
Details: other: ADA in solution, absorbance assay (FIG. 7)
Procedure: FIG. 7 is a graph showing the assessment of Km values for ADA in solution using an absorbance-based assay.
The KI value was determined by extrapolation of IC50 values to the point of zero substrate concentration. The method is based on the derivation described by Cheng and Prusoff,^26 as shown below. Km values were obtained using immobilized enzyme reactor columns by plotting the concentration of product formed upon infusion of a given concentration of substrate and fitting the data to the Michaelis-Menten equation. The data was compared to that obtained using a conventional absorbance based assay (see below).^27

B1: adenosine deaminase (ADA) in solution (Bos taurus) (protein)
chain: MAQTPAFNKPKVELHVHLDGAIKPETILYYGRKRGIALPADTPEELQNIIGMDKPLSLPEFLAKFDYYMPAIAGCREAVKRIAYEFVEMKAKDGVVYVEVRYSPHLLANSKVEPIPWNQAEGDLTPDEVVSLVNQGLQEGERDFGVKVRSILCCMRHQPSWSSEVVELCKKYREQTVVAIDLAGDETIEGSSLFPGHVKAYAEAVKSGVHRTVHAGEVGSANVVKEAVDTLKTERLGHGYHTLEDATLYNRLRQENMHFEVCPWSSYLTGAWKPDTEHPVVRFKNDQVNYSLNTDDPLIFKSTLDTDYQMTKNEMGFTEEEFKRLNINAAKSSFLPEDEKKELLDLLYKAYGMPSPASAEQCL
notes: Adenosine deaminase (ADA, Type V, from bovine intestine, EC 3.5.4.4); purchased Sigma-Aldrich (Oakville, Ontario, Canada) Type V (catalogue number not given); host or cells: bovine intestine (tissue-derived)
Km: 89 µM

From patent US20060226082A1, “Methods for substrate and modulator screening using enzyme-reactor chromatography/tandem mass spectrometry” (McMaster University, priority 2005, published 2006)
